Laboratory results published in IntAct's records for PubMed 29039417.

B1: Protein PTHB1 (Homo sapiens), Q3SYG4 (parent)
chain: MSLFKARDWWSTILGDKEEFDQGCLCLANVDNSGNGQDKIIVGSFMGYLRIFSPHPAKTGDGAQAEDLLLEVDLRDPVLQVEVGKFVSGTEMLHLAVLHSRKLCVYSVSGTLGNVEHGNQCQMKLMYEHNLQRTACNMTYGSFGGVKGRDLICIQSMDGMLMVFEQESYAFGRFLPGFLLPGPLAYSSRTDSFLTVSSCQQVESYKYQVLAFATDADKRQETEQQKLGSGKRLVVDWTLNIGEQALDICIVSFNQSASSVFVLGERNFFCLKDNGQIRFMKKLDWSPSCFLPYCSVSEGTINTLIGNHNNMLHIYQDVTLKWATQLPHIPVAVRVGCLHDLKGVIVTLSDDGHLQCSYLGTDPSLFQAPNVQSRELNYDELDVEMKELQKIIKDVNKSQGVWPMTEREDDLNVSVVVSPNFDSVSQATDVEVGTDLVPSVTVKVTLQNRVILQKAKLSVYVQPPLELTCDQFTFEFMTPDLTRTVSFSVYLKRSYTPSELEGNAVVSYSRPTDRNPDGIPRVIQCKFRLPLKLICLPGQPSKTASHKITIDTNKSPVSLLSLFPGFASQSDDDQVNVMGFHFLGGARITVLASKTSQRYRIQSEQFEDLWLITNELILRLQEYFEKQGVKDFACSFSGSIPLQEYFELIDHHFELRINGEKLEELLSERAVQFRAIQRRLLARFKDKTPAPLQHLDTLLDGTYKQVIALADAVEENQGNLFQSFTRLKSATHLVILLIALWQKLSADQVAILEAAFLPLQEDTQELGWEETVDAAISHLLKTCLSKSSKEQALNLNSQLNIPKDTSQLKKHITLLCDRLSKGGRLCLSTDAAAPQTMVMPGGCTTIPESDLEERSVEQDSTELFTNHRHLTAETPRPEVSPLQGVSE
partner: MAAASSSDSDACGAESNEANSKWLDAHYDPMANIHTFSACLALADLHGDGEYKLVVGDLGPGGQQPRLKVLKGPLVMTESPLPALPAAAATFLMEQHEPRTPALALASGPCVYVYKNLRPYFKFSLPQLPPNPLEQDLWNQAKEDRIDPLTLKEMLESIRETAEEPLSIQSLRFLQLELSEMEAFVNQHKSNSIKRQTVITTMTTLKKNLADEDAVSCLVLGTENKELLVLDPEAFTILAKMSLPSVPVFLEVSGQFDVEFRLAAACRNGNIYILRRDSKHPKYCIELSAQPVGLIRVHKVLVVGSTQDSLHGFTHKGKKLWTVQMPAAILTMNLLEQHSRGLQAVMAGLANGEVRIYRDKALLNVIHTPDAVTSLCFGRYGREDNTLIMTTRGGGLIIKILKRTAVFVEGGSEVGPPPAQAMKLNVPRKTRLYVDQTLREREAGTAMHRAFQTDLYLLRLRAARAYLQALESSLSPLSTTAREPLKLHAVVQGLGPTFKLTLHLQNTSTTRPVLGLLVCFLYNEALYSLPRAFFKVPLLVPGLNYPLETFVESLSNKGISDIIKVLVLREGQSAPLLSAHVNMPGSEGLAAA

Variants of: B1
Settings: with bbs1_human BBS1, Q8NFJ9

effect of a mutation on the interaction | Variant
with no effect | T512A
with no effect | C634K
with no effect | K532A
with no effect | A682K
with no effect | L465K
with no effect | T805A
with no effect | Q447K
with no effect | N420K
with no effect | S729E
with no effect | S439K
with no effect | T552A
with no effect | A427K
with no effect | T478E
with no effect | V577E
with no effect | V577A
with no effect | N866A
with no effect | L733E
with no effect | F756K
with no effect | S745K
with no effect | K594E
with no effect | V879A
disrupting interaction strength | L618F
with no effect | V706E

effect of a mutation on the interaction | Variant
with no effect | L766K
with no effect | D513K
with no effect | F606K
with no effect | T482K
disrupting interaction strength | A592V
with no effect | Y599A
with no effect | P537E
with no effect | P537K
with no effect | L665E
with no effect | W741A
with no effect | A675E
with no effect | A675K
with no effect | E852A
with no effect | S458K
with no effect | S603A
with no effect | E625K
with no effect | I707E
with no effect | L491A
with no effect | P497K
with no effect | L500K
with no effect | S418A
with no effect | P463K
with no effect | C469E

effect of a mutation on the interaction | Variant
with no effect | G842K
with no effect | A832E
with no effect | Q760K
with no effect | S667K
with no effect | R674E
with no effect | Q569A
with no effect | L562A
with no effect | F724E
with no effect | N716A
with no effect | I601E
with no effect | H694E
with no effect | R587A
with no effect | T445K
with no effect | S806A
with no effect | P840E
with no effect | E887A
with no effect | F632K
with no effect | I548E
with no effect | P540K
with no effect | P540A
with no effect | E668A
with no effect | F527E
with no effect | V489E

effect of a mutation on the interaction | Variant
with no effect | L882A
with no effect | R514A
with no effect | A586K
with no effect | S555A
with no effect | P511K
with no effect | L815A
with no effect | L698E
disrupting interaction strength | L819K
with no effect | L870A
with no effect | D650A
with no effect | E660K
with no effect | G579E
with no effect | E615K
with no effect | I519A
with no effect | I519K
with no effect | L436A
with no effect | S561A
with no effect | E848A
with no effect | G585A
disrupting interaction strength | H778E
with no effect | D608E
with no effect | R600A
with no effect | R600K

effect of a mutation on the interaction | Variant
with no effect | R600E
disrupting interaction strength | D817N
with no effect | L648E
with no effect | W768K
with no effect | W768A
with no effect | I812A
with no effect | T441E
with no effect | T874K
with no effect | H732A
with no effect | G502A
disrupting interaction strength | S568G
with no effect | R868A
with no effect | V505E
with no effect | L759E
with no effect | T484A
with no effect | S423E
with no effect | R824K
with no effect | T782K
with no effect | F474E
with no effect | L666K
with no effect | H867K
with no effect | K786E
with no effect | K786A

effect of a mutation on the interaction | Variant
with no effect | L784K
with no effect | T871K
with no effect | T871A
disrupting interaction strength | Q742L
with no effect | Q742A
with no effect | Q722E
with no effect | V450K
with no effect | V450E
disrupting interaction strength | T702C
with no effect | T702K
with no effect | I776A
with no effect | D551K
with no effect | L533A
with no effect | E664A
with no effect | L583K
with no effect | F487E
with no effect | F582K
with no effect | Q672K
with no effect | V629E
with no effect | L727A
with no effect | R521A
with no effect | R521E
with no effect | S788K

effect of a mutation on the interaction | Variant
with no effect | S788A
with no effect | Q597A
with no effect | L736E
with no effect | T434K
with no effect | V671E
with no effect | P691E
with no effect | P691A
disrupting interaction strength | Q791L
with no effect | V522E
with no effect | D686E
with no effect | V506A
with no effect | V506E
with no effect | S570A
with no effect | G718E
with no effect | S886A
with no effect | R818A
with no effect | T589K
with no effect | D573E
with no effect | Q835E
with no effect | Q835K
with no effect | P530A
with no effect | I534E
with no effect | L642K

effect of a mutation on the interaction | Variant
with no effect | G659K
with no effect | T595A
with no effect | S785E
with no effect | D517K
with no effect | T845E
with no effect | T845A
with no effect | T845K
with no effect | T613A
with no effect | M578A
with no effect | T725A
with no effect | L411A
with no effect | N576E
with no effect | H651E
with no effect | P556A
with no effect | Q705A
with no effect | W610E
with no effect | V461A
with no effect | I640A
with no effect | I640E
with no effect | I640K
with no effect | K728A
with no effect | K626A
